From US20020028487A1 (UNIVERSITY COURT OF THE UNIVERSITY OF GLASGOW, published 2002) come the findings set out here.

The labels stand for the following.
B1: VP16-JMY^469-558 (other)
chain: EKLQYAVSKETLQMMRAKEICLEQKKHALKEEMQSLQGGTEAIARLDQLESDYYDLQLQLYEVQFEILKCEELLLTAQLESIKRLISEKR
notes: Two-hybrid prey used in yeast and in U2OS cells; also called pVP16-JMY^469-558; JMY-VP16

One assay addresses G4-p300^611-1257 (yeast, UniProt P04386 1-147; Q09472 611-1257). As to the kind of experiment: cell-based or functional assay.
For the next assay, the target named is G4-p300^1572-2283 (yeast, UniProt P04386 1-147; Q09472 1572-2283). Briefly: cell-based or functional assay.
The target of assay [1] is T1, G4-p300 from residue 1302 to 1572 (yeast, UniProt P04386 1-147; Q09472 1302-1572).
T1 construct: Mammalian two-hybrid bait; also called p300^302-1572 (as printed in the methods)
Briefly: mammalian two-hybrid assay, U2OS cells, pG5-luc reporter.

The target in the assay “VP16-JMY^469-558” is B1. As to the kind of experiment: yeast two-hybrid, β-galactosidase induction; prey VP16-JMY^469-558.

As for B1, the “relative activity of luciferase to β-galactosidase (pG5-luc reporter, mammalian two-hybrid assay in U2OS cells)” value came out at 4 fold increase in the assay with G4-p300^611-1257 and 5 fold increase with G4-p300^1572-2283. For the same molecule, in assay [1], the binding result is reported as “no binding”.

B2: Lex-JMY^469-558 (other)
chain: EKLQYAVSKETLQMMRAKEICLEQKKHALKEEMQSLQGGTEAIARLDQLESDYYDLQLQLYEVQFEILKCEELLLTAQLESIKRLISEKR
notes: Yeast two-hybrid bait; also called pLex-JMY^469-558; not shown: LexA part of bait vector pLex (his)
Consider B2, for which the binding result in the assay with VP16-JMY^469-558 is listed as “binds”.
